# Experimental data taken from patent US20050191301A1 (Janssen / Centocor, published 2005).
# Ends that are not written are not given here.
# T1: EPO receptor (on UT-7/EPO cells) (human, UniProt P19235 25-508)
# T1 sequence (looked up): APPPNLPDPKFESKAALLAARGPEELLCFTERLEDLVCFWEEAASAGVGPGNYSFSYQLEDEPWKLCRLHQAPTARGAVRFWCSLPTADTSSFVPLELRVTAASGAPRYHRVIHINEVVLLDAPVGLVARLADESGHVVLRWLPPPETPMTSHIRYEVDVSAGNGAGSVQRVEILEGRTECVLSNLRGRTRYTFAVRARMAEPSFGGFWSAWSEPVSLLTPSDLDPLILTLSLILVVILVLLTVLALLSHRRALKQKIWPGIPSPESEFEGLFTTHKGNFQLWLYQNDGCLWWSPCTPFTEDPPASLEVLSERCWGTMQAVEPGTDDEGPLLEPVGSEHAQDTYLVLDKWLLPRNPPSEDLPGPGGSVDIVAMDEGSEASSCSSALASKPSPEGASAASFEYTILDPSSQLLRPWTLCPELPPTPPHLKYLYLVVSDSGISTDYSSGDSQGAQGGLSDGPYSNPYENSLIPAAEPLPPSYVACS
# Tests used:
# [1] = biological target: EPO receptor (on UT-7/EPO cells) (human) (UniProt P19235); assay: cell-based or functional assay
# [2] = biological target: T1, EPO receptor (on UT-7/EPO cells); assay: cell-based or functional assay
Molecule,"EC50 in the UT7 in vitro bioactivity assay, relative to its historical average [1] [fold]","EC50 in the UT-7/EPO in vitro bioactivity assay, relative to its historical average [2] [fold]"
recombinant human erythropoietin (rHuEPO) (from UniProt P01588 28-192) (ligand),3,–
GGTYSCHFGPLTWVCKPQGG (ends and bridges not checked; cysteine pairing not given here) [EMP-1 (EPO mimetic peptide-1)],–,2
